Measurements taken from publication PMC3698527.

What was measured:
[1] = target: HLA-DP2 with human peptide HU3 (human)
[2] = target: HLA-DP2 with human peptide HU24 (human)
[3] = target: HLA-DP2 with human peptide HU1 (human)
[4] = target: HLA-DP2 with human peptide HU2 (human)
[5] = target: HLA-DP2 with human peptide HU35 (human)
[6] = target: HLA-DP2 with human peptide HU25 (human)
[7] = target: HLA-DP2 with human peptide HU28 (human)
[8] = target: HLA-DP2 with human peptide HU22 (human)
[9] = target: HLA-DP2 with human peptide HU33 (human)
[10] = target: HLA-DP2 with human peptide HU21 (human)
[11] = target: HLA-DP2 with human peptide HU39 (human)
[12] = target: HLA-DP2 with human peptide HU20 (human)
[13] = target: HLA-DP2 with human peptide HU31 (human)
[14] = target: HLA-DP2 with human peptide HU9 (human)
[15] = target: HLA-DP2 with human peptide HU5 (human)
[16] = target: HLA-DP2 with human peptide HU17 (human)
[17] = target: HLA-DP2 with human peptide HU38 (human)
[18] = target: HLA-DP2 with human peptide HU6 (human)
[19] = target: HLA-DP2 with human peptide HU19 (human)
[20] = target: HLA-DP2 with human peptide HU15 (human)
[21] = target: HLA-DP2 with human peptide HU11 (human)
[22] = target: HLA-DP2 with human peptide HU29 (human)
[23] = target: HLA-DP2 with human peptide HU10 (human)
[24] = target: HLA-DP2 with human peptide HU7 (human)
[25] = target: HLA-DP2 with human peptide HU16 (human)
[26] = target: HLA-DP2 with human peptide HU8 (human)

AV9 TCR on the T cell hybridoma AV9
IL-2 secretion of AV9 hybridoma, 0.5 µg/ml peptide, 75 µM BeSO4 [1]: 75.1 pg/mL | IL-2 secretion of AV9 hybridoma, 0.5 µg/ml peptide, 75 µM BeSO4 [2]: 4.6 pg/mL | IL-2 secretion of AV9 hybridoma, 0.5 µg/ml peptide, 75 µM BeSO4 [3]: 1120 pg/mL | IL-2 secretion of AV9 hybridoma, 0.5 µg/ml peptide, 75 µM BeSO4 [4]: 966 pg/mL | IL-2 secretion of AV9 hybridoma, 0.5 µg/ml peptide, 75 µM BeSO4 [5]: 1040 pg/mL | IL-2 secretion of AV9 hybridoma, 0.5 µg/ml peptide, 75 µM BeSO4 [6]: 847 pg/mL | IL-2 secretion of AV9 hybridoma, 0.5 µg/ml peptide, 75 µM BeSO4 [7]: 4.6 pg/mL | IL-2 secretion of AV9 hybridoma, 0.5 µg/ml peptide, 75 µM BeSO4 [8]: 4.1 pg/mL | IL-2 secretion of AV9 hybridoma, 0.5 µg/ml peptide, 75 µM BeSO4 [9]: 954 pg/mL | IL-2 secretion of AV9 hybridoma, 0.5 µg/ml peptide, 75 µM BeSO4 [10]: 48.8 pg/mL | IL-2 secretion of AV9 hybridoma, 0.5 µg/ml peptide, 75 µM BeSO4 [11]: 68.7 pg/mL | IL-2 secretion of AV9 hybridoma, 0.5 µg/ml peptide, 75 µM BeSO4 [12]: 4.6 pg/mL | IL-2 secretion of AV9 hybridoma, 0.5 µg/ml peptide, 75 µM BeSO4 [13]: 1040 pg/mL | IL-2 secretion of AV9 hybridoma, 0.5 µg/ml peptide, 75 µM BeSO4 [14]: 48.6 pg/mL | IL-2 secretion of AV9 hybridoma, 0.5 µg/ml peptide, 75 µM BeSO4 [15]: 4.6 pg/mL | IL-2 secretion of AV9 hybridoma, 0.5 µg/ml peptide, 75 µM BeSO4 [16]: 16.3 pg/mL | IL-2 secretion of AV9 hybridoma, 0.5 µg/ml peptide, 75 µM BeSO4 [17]: 5.1 pg/mL | IL-2 secretion of AV9 hybridoma, 0.5 µg/ml peptide, 75 µM BeSO4 [18]: 4.1 pg/mL | IL-2 secretion of AV9 hybridoma, 0.5 µg/ml peptide, 75 µM BeSO4 [19]: 4.6 pg/mL | IL-2 secretion of AV9 hybridoma, 0.5 µg/ml peptide, 75 µM BeSO4 [20]: 49.3 pg/mL | IL-2 secretion of AV9 hybridoma, 0.5 µg/ml peptide, 75 µM BeSO4 [21]: 5.6 pg/mL | IL-2 secretion of AV9 hybridoma, 0.5 µg/ml peptide, 75 µM BeSO4 [22]: 4.6 pg/mL

AV22 TCR on the T cell hybridoma AV22
IL-2 secretion of AV22 hybridoma, 0.5 µg/ml peptide, 75 µM BeSO4 [1]: 29.3 pg/mL | IL-2 secretion of AV22 hybridoma, 0.5 µg/ml peptide, 75 µM BeSO4 [23]: 5.1 pg/mL | IL-2 secretion of AV22 hybridoma, 0.5 µg/ml peptide, 75 µM BeSO4 [24]: 4.1 pg/mL | IL-2 secretion of AV22 hybridoma, 0.5 µg/ml peptide, 75 µM BeSO4 [3]: 997 pg/mL | IL-2 secretion of AV22 hybridoma, 0.5 µg/ml peptide, 75 µM BeSO4 [4]: 716 pg/mL | IL-2 secretion of AV22 hybridoma, 0.5 µg/ml peptide, 75 µM BeSO4 [5]: 947 pg/mL | IL-2 secretion of AV22 hybridoma, 0.5 µg/ml peptide, 75 µM BeSO4 [6]: 622 pg/mL | IL-2 secretion of AV22 hybridoma, 0.5 µg/ml peptide, 75 µM BeSO4 [8]: 5.1 pg/mL | IL-2 secretion of AV22 hybridoma, 0.5 µg/ml peptide, 75 µM BeSO4 [10]: 17.4 pg/mL | IL-2 secretion of AV22 hybridoma, 0.5 µg/ml peptide, 75 µM BeSO4 [11]: 22.4 pg/mL | IL-2 secretion of AV22 hybridoma, 0.5 µg/ml peptide, 75 µM BeSO4 [12]: 4.6 pg/mL | IL-2 secretion of AV22 hybridoma, 0.5 µg/ml peptide, 75 µM BeSO4 [13]: 973 pg/mL | IL-2 secretion of AV22 hybridoma, 0.5 µg/ml peptide, 75 µM BeSO4 [14]: 21.7 pg/mL | IL-2 secretion of AV22 hybridoma, 0.5 µg/ml peptide, 75 µM BeSO4 [15]: 4.1 pg/mL | IL-2 secretion of AV22 hybridoma, 0.5 µg/ml peptide, 75 µM BeSO4 [16]: 15.6 pg/mL | IL-2 secretion of AV22 hybridoma, 0.5 µg/ml peptide, 75 µM BeSO4 [25]: 4.6 pg/mL | IL-2 secretion of AV22 hybridoma, 0.5 µg/ml peptide, 75 µM BeSO4 [17]: 5.6 pg/mL | IL-2 secretion of AV22 hybridoma, 0.5 µg/ml peptide, 75 µM BeSO4 [19]: 4.1 pg/mL | IL-2 secretion of AV22 hybridoma, 0.5 µg/ml peptide, 75 µM BeSO4 [26]: 4.6 pg/mL
